Source: US7262005

Molecular target: Fas receptor (UniProt P25445)
Assay: cell-based or functional assay

Chain of Fas receptor (P25445 26-335 limits assumed): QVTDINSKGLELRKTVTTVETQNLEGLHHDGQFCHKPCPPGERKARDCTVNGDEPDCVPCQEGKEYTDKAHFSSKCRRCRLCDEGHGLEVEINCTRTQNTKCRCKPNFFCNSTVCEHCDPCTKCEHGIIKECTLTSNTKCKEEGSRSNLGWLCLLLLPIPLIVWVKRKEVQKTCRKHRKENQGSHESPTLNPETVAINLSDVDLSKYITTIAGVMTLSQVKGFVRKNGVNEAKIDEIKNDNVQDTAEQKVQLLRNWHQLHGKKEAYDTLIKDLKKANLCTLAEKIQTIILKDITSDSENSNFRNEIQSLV

460/530 emission ratio, + αFas/+ chx, Jurkat cells expressing 2XUb-DEVD-Bla, 50 ng/ml anti-Fas IgM for 6 hours (460/530 emission ratio): 0.67 | EC50 of caspase activation in Jurkat cells expressing 2XUb-DEVD-Bla (β-lactamase activity, CCF2 460/530 nm ratio after cycloheximide chase): 0.011 µg/mL
Substance: CH-11 anti-Fas IgM (antibody)
